Source: US20230250154A1 (CYTONICS, published 2023)

B1: Variant A2M, bait region SEQ ID NO 96 (other)
chain: SVSGKPQYMVLVPSLLHTETTEKGCVLLSYLNETVTVSASLESVRGNRSLFTDLEAENDVLHCVAFAVPKSSSNEEVMFLTVQVKGPTQEFKKRTTVMVKNEDSLVFVQTDKSIYKPGQTVKFRVVSMDENFHPLNELIPLVYIQDPKGNRIAQWQSFQLEGGLKQFSFPLSSEPFQGSYKVVVQKKSGGRTEHPFTVEEFVLPKFEVQVTVPKIITILEEEMNVSVCGLYTYGKPVPGHVTVSICRKYSDASDCHGEDSQAFCEKFSGQLNSHGCFYQQVKTKVFQLKRKEYEMKLHTEAQIQEEGTVVELTGRQSSEITRTITKLSFVKVDSHFRQGIPFFGQVRLVDGKGVPIPNKVIFIRGNEANYYSNATTDEHGLVQFSINTTNVMGTSLTVRVNYKDRSPCYGYQWVSEEHEEAHHTAYLVFSPSKSFVHLEPMSHELPCGHTQTVQAHYILNGGTLLGLKKLSFYYLIMAKGGIVRTGTHGLLVKQEDMKGHFSISIPVKSDIAPVARLLIYAVLPTGDVIGDSAKYDVENCLANKVDLSFSPSQSLPASHAHLRVTAAPQSVCALRAVDQSVLLMKPDAELSASSVYNLLPEKDLTGFPGPLNDQDDEDCINRHNVYINGITYTPVSSTNEKDMYSFLEDMGLKAFTNSKIRKPKMCPQLEQYEMHGPEGLRVGEGEGEGEGFYESDVMGRGHARLVHVEEPHTKLLRKYFPETWIWDLVVVNSAGVAEVGVTVPDTITEWKAGAFCLSEDAGLGISSTASLRAFQPFFVELTMPYSVIRGEAFTLKATVLNYLPKCIRVSVQLEASPAFLAVPVEKEQAPHCICANGRQTVSWAVTPKSLGNVNFTVSAEALESQELCGTEVPSVPEHGRKDTVIKPLLVEPEGLEKETTFNSLLCPSGGEVSEELSLKLPPNVVEESARASVSVLGDILGSAMQNTQNLLQMPYGCGEQNMVLFAPNIYVLDYLNETQQLTPEIKSKAIGYLNTGYQRQLNYKHYDGSYSTFGERYGRNQGNTWLTAFVLKTFAQARAYIFIDEAHITQALIWLSQRQKDNGCFRSSGSLLNNAIKGGVEDEVTLSAYITIALLEIPLTVTHPVVRNALFCLESAWKTAQEGDHGSHVYTKALLAYAFALAGNQDKRKEVLKSLNEEAVKKDNSVHWERPQKPKAPVGHFYEPQAPSAEVEMTSYVLLAYLTAQPAPTSEDLTSATNIVKWITKQQNAQGGFSSTQDTVVALHALSKYGAATFTRTGKAAQVTIQSSGTFSSKFQVDNNNRLLLQQVSLPELPGEYSMKVTGEGCVYLQTSLKYNILPEKEEFPFALGVQTLPQTCDEPKAHTSFQISLSVSYTGSRSASNMAIVDVKMVSGFIPLKPTVKMLERSNHVSRTEVSSNHVLIYLDKVSNQTLSLFFTVLQDVPVRDLKPAIVKVYDYYETDEFAIAEYNAPCSKDLGNADYKDDDDKGASHHHHHH
B2: Variant A2M, bait region SEQ ID NO 125 (other)
chain: SVSGKPQYMVLVPSLLHTETTEKGCVLLSYLNETVTVSASLESVRGNRSLFTDLEAENDVLHCVAFAVPKSSSNEEVMFLTVQVKGPTQEFKKRTTVMVKNEDSLVFVQTDKSIYKPGQTVKFRVVSMDENFHPLNELIPLVYIQDPKGNRIAQWQSFQLEGGLKQFSFPLSSEPFQGSYKVVVQKKSGGRTEHPFTVEEFVLPKFEVQVTVPKIITILEEEMNVSVCGLYTYGKPVPGHVTVSICRKYSDASDCHGEDSQAFCEKFSGQLNSHGCFYQQVKTKVFQLKRKEYEMKLHTEAQIQEEGTVVELTGRQSSEITRTITKLSFVKVDSHFRQGIPFFGQVRLVDGKGVPIPNKVIFIRGNEANYYSNATTDEHGLVQFSINTTNVMGTSLTVRVNYKDRSPCYGYQWVSEEHEEAHHTAYLVFSPSKSFVHLEPMSHELPCGHTQTVQAHYILNGGTLLGLKKLSFYYLIMAKGGIVRTGTHGLLVKQEDMKGHFSISIPVKSDIAPVARLLIYAVLPTGDVIGDSAKYDVENCLANKVDLSFSPSQSLPASHAHLRVTAAPQSVCALRAVDQSVLLMKPDAELSASSVYNLLPEKDLTGFPGPLNDQDDEDCINRHNVYINGITYTPVSSTNEKDMYSFLEDMGLKAFTNSKIRKPKMCPQLEQYEMHGPSELEGRGSIPENFFGVEAIPMSIPTSEDLVVQIVEEPHTKLRKYFPETWIWDLVVVNSAGVAEVGVTVPDTITEWKAGAFCLSEDAGLGISSTASLRAFQPFFVELTMPYSVIRGEAFTLKATVLNYLPKCIRVSVQLEASPAFLAVPVEKEQAPHCICANGRQTVSWAVTPKSLGNVNFTVSAEALESQELCGTEVPSVPEHGRKDTVIKPLLVEPEGLEKETTFNSLLCPSGGEVSEELSLKLPPNVVEESARASVSVLGDILGSAMQNTQNLLQMPYGCGEQNMVLFAPNIYVLDYLNETQQLTPEIKSKAIGYLNTGYQRQLNYKHYDGSYSTFGERYGRNQGNTWLTAFVLKTFAQARAYIFIDEAHITQALIWLSQRQKDNGCFRSSGSLLNNAIKGGVEDEVTLSAYITIALLEIPLTVTHPVVRNALFCLESAWKTAQEGDHGSHVYTKALLAYAFALAGNQDKRKEVLKSLNEEAVKKDNSVHWERPQKPKAPVGHFYEPQAPSAEVEMTSYVLLAYLTAQPAPTSEDLTSATNIVKWITKQQNAQGGFSSTQDTVVALHALSKYGAATFTRTGKAAQVTIQSSGTFSSKFQVDNNNRLLLQQVSLPELPGEYSMKVTGEGCVYLQTSLKYNILPEKEEFPFALGVQTLPQTCDEPKAHTSFQISLSVSYTGSRSASNMAIVDVKMVSGFIPLKPTVKMLERSNHVSRTEVSSNHVLIYLDKVSNQTLSLFFTVLQDVPVRDLKPAIVKVYDYYETDEFAIAEYNAPCSKDLGNADYKDDDDKGASHHHHHH

Key:
Assay in all cases: cell-based or functional assay
Elastase = target: Elastase
bovine trypsin = bovine trypsin (bovine, UniProt P00760 24-246)
Chain of bovine trypsin (P00760 24-246): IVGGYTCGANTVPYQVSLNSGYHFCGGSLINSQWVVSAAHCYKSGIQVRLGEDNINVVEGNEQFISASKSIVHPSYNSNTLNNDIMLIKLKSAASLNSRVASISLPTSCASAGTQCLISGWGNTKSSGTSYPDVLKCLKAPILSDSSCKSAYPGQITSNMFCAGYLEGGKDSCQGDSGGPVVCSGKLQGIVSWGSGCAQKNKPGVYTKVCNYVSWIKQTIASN

MMP1 = target: T1, MMP1 (human, UniProt P03956 100-469, limits assumed)
T1 sequence (looked up): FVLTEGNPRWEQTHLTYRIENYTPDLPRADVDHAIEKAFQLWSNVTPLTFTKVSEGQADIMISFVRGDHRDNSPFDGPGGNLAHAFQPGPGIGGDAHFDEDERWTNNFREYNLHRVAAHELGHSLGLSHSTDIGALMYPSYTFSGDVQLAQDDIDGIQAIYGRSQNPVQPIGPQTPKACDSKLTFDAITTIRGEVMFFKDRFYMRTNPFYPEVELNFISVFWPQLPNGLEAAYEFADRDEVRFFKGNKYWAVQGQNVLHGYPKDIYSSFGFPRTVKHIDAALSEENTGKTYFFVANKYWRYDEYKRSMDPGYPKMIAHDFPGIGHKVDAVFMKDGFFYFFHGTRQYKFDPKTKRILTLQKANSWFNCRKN

ADAMTS5 = target: T2, ADAMTS5 (human, UniProt Q9UNA0 262-622, limits assumed)
T2 sequence (looked up): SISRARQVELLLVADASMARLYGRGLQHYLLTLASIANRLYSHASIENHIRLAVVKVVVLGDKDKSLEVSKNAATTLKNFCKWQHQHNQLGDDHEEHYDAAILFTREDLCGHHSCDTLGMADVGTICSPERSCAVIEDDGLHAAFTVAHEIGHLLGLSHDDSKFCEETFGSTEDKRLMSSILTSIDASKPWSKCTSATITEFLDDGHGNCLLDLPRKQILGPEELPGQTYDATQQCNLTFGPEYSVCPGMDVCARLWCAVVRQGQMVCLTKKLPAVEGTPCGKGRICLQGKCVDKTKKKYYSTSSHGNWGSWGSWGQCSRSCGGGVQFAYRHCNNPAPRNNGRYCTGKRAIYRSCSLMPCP

ADAMTS4 = target: T3, ADAMTS4 (human, UniProt O75173 213-685, limits assumed)
T3 sequence (looked up): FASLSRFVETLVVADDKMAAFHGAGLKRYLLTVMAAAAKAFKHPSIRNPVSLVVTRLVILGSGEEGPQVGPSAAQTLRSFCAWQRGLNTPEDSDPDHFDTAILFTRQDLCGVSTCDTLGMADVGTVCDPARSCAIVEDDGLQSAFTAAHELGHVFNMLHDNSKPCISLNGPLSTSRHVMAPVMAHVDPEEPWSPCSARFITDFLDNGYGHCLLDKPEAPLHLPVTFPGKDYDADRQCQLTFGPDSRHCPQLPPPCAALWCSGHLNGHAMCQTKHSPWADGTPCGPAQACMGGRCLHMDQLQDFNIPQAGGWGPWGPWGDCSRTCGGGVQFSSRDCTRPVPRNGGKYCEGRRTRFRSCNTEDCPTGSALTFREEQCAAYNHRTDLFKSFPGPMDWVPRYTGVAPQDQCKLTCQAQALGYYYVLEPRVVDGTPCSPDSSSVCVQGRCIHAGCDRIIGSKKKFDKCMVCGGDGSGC

MMP9 = MMP9 (human, UniProt P14780 107-707, limits assumed)
Chain of MMP9 (P14780 107-707 limits assumed): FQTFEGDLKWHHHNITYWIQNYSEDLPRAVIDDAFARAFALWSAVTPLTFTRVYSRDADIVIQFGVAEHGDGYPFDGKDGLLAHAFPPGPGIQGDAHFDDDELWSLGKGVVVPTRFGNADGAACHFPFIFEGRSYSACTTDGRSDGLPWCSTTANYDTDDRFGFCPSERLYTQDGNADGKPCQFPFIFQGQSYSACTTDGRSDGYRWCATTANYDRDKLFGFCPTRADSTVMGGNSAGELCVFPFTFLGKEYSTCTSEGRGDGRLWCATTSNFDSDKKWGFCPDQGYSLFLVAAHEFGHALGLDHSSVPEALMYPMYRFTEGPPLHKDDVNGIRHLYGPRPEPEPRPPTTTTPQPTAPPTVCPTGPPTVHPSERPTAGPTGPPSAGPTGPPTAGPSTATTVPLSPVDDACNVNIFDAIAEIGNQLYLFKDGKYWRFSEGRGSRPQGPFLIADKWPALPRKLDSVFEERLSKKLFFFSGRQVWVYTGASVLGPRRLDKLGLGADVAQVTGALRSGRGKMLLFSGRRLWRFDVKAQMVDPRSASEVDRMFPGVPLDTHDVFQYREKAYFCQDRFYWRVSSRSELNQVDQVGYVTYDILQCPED

MMP3 = MMP3 (human, UniProt P08254 100-477, limits assumed)
Chain of MMP3 (P08254 100-477 limits assumed): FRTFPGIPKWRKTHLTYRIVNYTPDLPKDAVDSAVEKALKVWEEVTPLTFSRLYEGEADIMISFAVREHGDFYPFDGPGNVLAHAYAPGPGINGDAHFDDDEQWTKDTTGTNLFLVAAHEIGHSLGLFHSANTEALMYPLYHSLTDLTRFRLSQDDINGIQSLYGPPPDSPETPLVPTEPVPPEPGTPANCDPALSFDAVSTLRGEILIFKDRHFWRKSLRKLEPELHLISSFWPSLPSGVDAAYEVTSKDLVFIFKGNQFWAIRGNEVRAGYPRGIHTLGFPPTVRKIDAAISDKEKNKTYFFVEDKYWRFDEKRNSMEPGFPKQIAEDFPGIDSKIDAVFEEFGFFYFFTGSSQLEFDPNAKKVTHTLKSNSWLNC

MMP12 = MMP12 (human, UniProt P39900 106-470, limits assumed)
Chain of MMP12 (P39900 106-470 limits assumed): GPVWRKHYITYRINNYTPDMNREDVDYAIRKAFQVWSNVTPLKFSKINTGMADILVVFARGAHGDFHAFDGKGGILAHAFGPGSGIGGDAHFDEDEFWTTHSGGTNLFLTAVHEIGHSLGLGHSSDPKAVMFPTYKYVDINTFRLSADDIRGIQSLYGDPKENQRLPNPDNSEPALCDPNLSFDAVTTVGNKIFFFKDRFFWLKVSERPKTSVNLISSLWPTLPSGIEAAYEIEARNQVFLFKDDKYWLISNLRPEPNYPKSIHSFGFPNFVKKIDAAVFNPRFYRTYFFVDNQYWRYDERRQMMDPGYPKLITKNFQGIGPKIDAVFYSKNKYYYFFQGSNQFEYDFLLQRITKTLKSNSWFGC

MMP8 = MMP8 (human, UniProt P22894 101-467, limits assumed)
Chain of MMP8 (P22894 101-467 limits assumed): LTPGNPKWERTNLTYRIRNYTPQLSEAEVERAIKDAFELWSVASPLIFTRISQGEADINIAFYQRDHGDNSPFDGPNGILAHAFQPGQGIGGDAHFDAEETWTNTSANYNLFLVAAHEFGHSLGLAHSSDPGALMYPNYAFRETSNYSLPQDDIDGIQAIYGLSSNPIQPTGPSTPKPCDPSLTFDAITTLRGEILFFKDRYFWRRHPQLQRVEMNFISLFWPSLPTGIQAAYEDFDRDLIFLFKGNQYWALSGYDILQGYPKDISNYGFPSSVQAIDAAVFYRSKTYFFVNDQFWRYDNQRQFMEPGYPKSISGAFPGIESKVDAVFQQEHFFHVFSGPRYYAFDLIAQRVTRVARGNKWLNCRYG

MMP2 = target: T4, MMP2 (human, UniProt P08253 110-660, limits assumed)
T4 sequence (looked up): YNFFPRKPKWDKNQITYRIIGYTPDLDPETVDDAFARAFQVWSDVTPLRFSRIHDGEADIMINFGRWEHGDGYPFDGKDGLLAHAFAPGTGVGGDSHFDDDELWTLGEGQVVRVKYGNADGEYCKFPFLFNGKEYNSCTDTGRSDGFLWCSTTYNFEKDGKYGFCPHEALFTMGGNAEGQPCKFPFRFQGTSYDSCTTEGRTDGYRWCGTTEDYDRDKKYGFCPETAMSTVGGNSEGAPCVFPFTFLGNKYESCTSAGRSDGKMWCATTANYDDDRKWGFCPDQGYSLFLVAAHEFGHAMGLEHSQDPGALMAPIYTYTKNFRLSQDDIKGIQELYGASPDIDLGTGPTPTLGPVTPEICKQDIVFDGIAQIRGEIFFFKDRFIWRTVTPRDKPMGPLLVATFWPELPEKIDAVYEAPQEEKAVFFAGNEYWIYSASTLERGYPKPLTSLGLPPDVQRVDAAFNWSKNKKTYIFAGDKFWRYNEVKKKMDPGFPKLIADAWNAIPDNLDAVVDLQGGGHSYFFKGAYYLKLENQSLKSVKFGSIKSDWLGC

MMP13 = MMP13 (human, UniProt P45452 104-471, limits assumed)
Cathepsin G = target: T5, Cathepsin G (UniProt P08311 21-244)
T5 sequence (looked up): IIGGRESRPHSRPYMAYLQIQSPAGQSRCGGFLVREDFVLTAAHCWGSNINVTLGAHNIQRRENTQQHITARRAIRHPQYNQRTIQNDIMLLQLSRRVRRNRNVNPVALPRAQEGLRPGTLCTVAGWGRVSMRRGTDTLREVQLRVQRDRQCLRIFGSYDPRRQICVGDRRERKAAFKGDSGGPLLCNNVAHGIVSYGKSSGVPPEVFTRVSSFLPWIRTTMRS

Row | Binder | Protease Inhibition (% of WT) (Elastase) | Protease Inhibition (% of WT) (bovine trypsin) | Protease Inhibition (% of WT) (MMP1) | Protease Inhibition (% of WT) (ADAMTS5) | Protease Inhibition (% of WT) (ADAMTS4) | Protease Inhibition (% of WT) (MMP9) | Protease Inhibition (% of WT) (MMP3) | Protease Inhibition (% of WT) (MMP12) | Protease Inhibition (% of WT) (MMP8) | Protease Inhibition (% of WT) (MMP2) | Protease Inhibition (% of WT) (MMP13) | Protease Inhibition (% of WT) (Cathepsin G)
1 | B1 | 50 % of WT | 100 % of WT | 100 % of WT | 350 % of WT | 250 % of WT | 70 % of WT | 80 % of WT | 100 % of WT | 50 % of WT | 100 % of WT | 200 % of WT | 
2 | B2 | 75 % of WT |  | 200 % of WT |  |  | 300 % of WT |  | 300 % of WT | 300 % of WT | 20 % of WT |  | 250 % of WT
